How the values were obtained:
[1] = OVA delivery into hairless guinea pig skin from dry-coated microprojection arrays (skin biopsy fluorometry); assay type: in vivo; details: for Amount of ovalbumin delivered: 2 cm^2 array applied 5 seconds on HGP skin, n=3, mean ± SEM; for OVA delivered into the skin: 2 cm^2 device coated with 20% OVA solution
Text: The treatment sites (lateral area of the thorax) of anesthetized HGPs were cleaned with isopropyl alcohol wipes (70%) and allowed to dry. The skin site was lightly stretched manually when the system was applied using an impact applicator. Following application, the stretching tension was released and the system was left on the skin for the specified period of time. For devices left on skin for more than 5 seconds, the HGPs were wrapped with Vetwrap® (3M, St Paul, Minn.) and individually housed.
Each HGP received a dry-coated FITC-OVA microprojection array, which was applied as described above. Following system removal, the treated skin sites were thoroughly washed with 70% isopropyl alcohol to remove any residual OVA on the skin surface. The HGPs were euthanized and 8-mm skin biopsies were taken. Each tissue sample was placed in a scintillation vial with 0.1 mL deionized water. Hyamine hydroxide (0.9 mL, 1 M in methanol, JT Baker, Phillipsburg, N.J.) was then added, and the samples were incubated overnight at 60° C. Thereafter, the dissolved material was further diluted with 2 mL hyamine hydroxide/water (9:1), and fluorescence was quantitated by fluorometry and compared to known standards. Background control samples included untreated skin. A minimum replicate of three was used for each experimental condition.

[2] = tested on: hairless guinea pigs (HGPs); test: Immunization of hairless guinea pigs with OVA; anti-OVA IgG titers by ELISA; assay type: in vivo, hairless guinea pig; details: for Increase in antibody titer over non-adjuvant controls: about 1 μg OVA with 15 μg GMDP, one week after booster
Protocol: Baseline blood samples were obtained from all animals before the day of immunization. On the day of immunization, the HGPs were anesthetized and the treatment sites were cleaned with 70% isopropyl alcohol and allowed to dry. For immunizations performed by needle injection, OVA was dissolved in sterile water. Sterile 1-mL syringes with 25-gauge needles (Becton Dickinson, Franklin Lakes, N.J.) were used. ID and SC injections were performed on the dorsal-lateral area of HGPs. The quadriceps muscle of the hind leg was used for IM injection. Microprojection arrays containing dry-coated OVA were applied as described above.
Each HGP received a primary immunization (Day 0) followed by a secondary (i.e., booster) immunization 4 weeks later with an identical article. After primary immunization, HGPs were anesthetized and blood was collected from the anterior vena cava. The serum samples were evaluated by immunoassay for the presence of anti-OVA antibodies.
Sera from nonimmunized and immunized HGPs were tested for the presence of antibodies to OVA by enzyme-linked immunosorbent assay (ELISA). Briefly, 96-well polystyrene plates (Maxisorp, NUNC, Rochester, N.Y.) were coated with 0.1 muwell of OVA (10 μg/mL in 0.2 M Na bicarbonate/carbonate buffer, pH 9.6) and incubated overnight at 4° C. The plates were washed with PBS-Tween buffer then blocked with 200 μL of PBS/casein (0.5%)/Tween-20 (0.05%) buffer for 1 hour at room temperature. Then the plates were again washed and the test sera were added (100 μL/well at 2- to 5-fold serial dilutions, three replicates, 1 hour at room temperature). After washing, 100 μL peroxidase conjugated goat anti-guinea pig IgG antibody (Jackson ImmunoResearch Laboratories, West Grove, Pa.) was added and incubated for 1 hour at room temperature. After incubation, the plates were washed, 100 μL of substrate (ABTS, Becton Dickinson, Franklin Lakes, N.J.) was added, and they were incubated for 35 minutes at room temperature. Absorbance ([…]) was measured using a SpectraMAX 250 (Molecular Devices Corporation, Sunnyvale, Calif.). The results are expressed as endpoint antibody titers relative to nonimmunized control sera samples.
Results are presented as the mean with its associated standard error of the mean. Comparison between groups was performed by analysis of variance (ANOVA).

[3] = tested on: hairless guinea pigs; test: Example 2: immunization with tip-coated arrays; anti-ovalbumin IgG titer by ELISA; assay type: in vivo, hairless guinea pig; details: tip-coated array patch, 5 seconds wearing; two and three weeks after primary immunization; six animals
Protocol: Identical microprojection arrays were coated with untagged ovalbumin using a similar methodology. The amount of protein coated on the arrays was evaluated by total protein assay. The target dose of 5 μg of ovalbumin (OVA) was coated with acceptable reproducibility (4.6±0.5 μg) using a 20 wt % OVA coating solution. Immunization studies were conducted with these arrays in one group of six hairless guinea pigs. Systems and system application in animals was the same as described above except that the wearing time in all guinea pigs was 5 seconds. Three additional groups of animals received intradermal injections of 0.1, 1.0, and 10 μg ovalbumin. Blood samples were taken at various time intervals and evaluated for antibody (IgG) titer against ovalbumin by ELISA.

[4] = Example 2: ovalbumin delivery into hairless guinea pig skin from tip-coated arrays; assay type: in vivo; details: for Delivery efficiency: tip-coated arrays
Text: Some of these microprojection arrays were applied to hairless guinea pigs (three animals per group) for evaluation of ovalbumin delivery into the skin. The skin of the animal flank was stretched manually bilaterally ( ? and ? ) at the time of application of the system. […] The system applied comprised an ovalbumin coated microprojection array, adhered to the center of a low density polyethylene film backing with an acrylate adhesive (7 cm^2 disc). Following application, the stretching tension was released and the system was removed after 5 seconds or 1 hour contact with the skin. Following removal of the system, residual drug was thoroughly washed from the skin and an 8 mm skin biopsy was taken at the location of the application. The total amount of ovalbumin delivered in the skin was determined by dissolving the skin biopsy in hyamine hydroxide (1M in methanol). Quantitation was performed by fluorimetry. […] Delivery efficiency was also found to be relatively independent of the thickness of the coating.

[5] = 1 μg OVA, 1 week after booster immunization

CC(=O)NC1C(OC2C(CO)OC(O)C(NC(C)=O)C2OC(C)C(=O)N[C@@H](C)C(=O)N[C@H](CCC(N)=O)C(=O)O)OC(CO)C(O)C1O (stereo partly drawn) [GMDP, N-acetylglucosamine-(β1-4)-N-acetylmuramyl-L-alanyl-D-glutamine, reference compound]
Effect of the adjuvant on the amount of OVA delivered ([1]; OVA and GMDP dry-coated arrays, data not shown): did not significantly affect the amount of OVA delivered
Antibody titers with arrays delivering GMDP and OVA versus OVA alone (dose-sparing) ([2]; 1 μg OVA with about 15 μg GMDP by microprojection array): approached the titer levels achieved with OVA doses of 20 μg or greater in the absence of GMDP
Increase in antibody titer over non-adjuvant controls ([2]; ID administration): 250%
Increase in antibody titer over non-adjuvant controls ([2]; microprojection array administration): 1300%

ovalbumin [model protein antigen (Grade V, SIGMA); FITC-labeled form used for coating and delivery quantitation]
Antibody level, microprojection array relative to IM injection [2, 5]: 50 fold
Antibody level, microprojection array relative to SC injection [2, 5]: 10 fold
Antibody titer, microprojection array relative to IM needle administration ([2]; 5 μg OVA, 1 week after booster immunization): 24 fold
Antibody response, microprojection array relative to subcutaneous or intramuscular administration ([2]; 1 and 5 μg doses of OVA): up to 50 fold
Antibody response, microprojection array versus intradermal administration ([2]; 1 and 5 μg doses of OVA): equivalent
Antibody titers, microprojection array versus conventional ID, SC or IM injection ([2]; 20 or 80 μg OVA, 1 week after booster immunization): comparable
Development of anti-ovalbumin IgG antibodies [3]: all animals dosed with the microprojection array patch had developed anti-ovalbumin IgG antibodies

B1: ovalbumin (protein, UniProt P01012 2-386, looked up)
Ovalbumin: GSIGAASMEFCFDVFKELKVHHANENIFYCPIAIMSALAMVYLGAKDSTRTQINKVVRFDKLPGFGDSIEAQCGTSVNVHSSLRDILNQITKPNDVYSFSLASRLYAEERYPILPEYLQCVKELYRGGLEPINFQTAADQARELINSWVESQTNGIIRNVLQPSSVDSQTAMVLVNAIVFKGLWEKAFKDEDTQAMPFRVTEQESKPVQMMYQIGLFRVASMASEKMKILELPFASGTMSMLVLLPDEVSGLEQLESIINFEKLTEWTSSNVMEERKIKVYLPRMKMEEKYNLTSVLMAMGITDVFSSSANLSGISSAESLKISQAVHAAHAEINEAGREVVGSAEAGVDAASVSEEFRADHPFLFCIKHIATNAVLFFGRCVSP
modifications: FITC label (in one form)
notes: model protein antigen (Grade V, SIGMA); FITC-labeled form used for coating and delivery quantitation
Amount of ovalbumin delivered ([1]; 1% coating concentration): about 1 μg/cm^2
Amount of ovalbumin delivered ([1]; 1% coating concentration, listed as Ovalbumin): 0.9 ± 0.1 μg/cm^2
OVA delivered into the skin ([1]; 30 minute application): 50 µg
OVA delivered into the skin ([1]; 1 hour application): approximately 80 μg
Amount of ovalbumin delivered ([1]; 5% coating concentration): ~6 μg/cm^2
Amount of ovalbumin delivered ([1]; 5% coating concentration, listed as Ovalbumin): 5.8 ± 1.4 μg/cm^2
Amount of ovalbumin delivered ([1]; 20% coating concentration): ~10 μg/cm^2
Amount of ovalbumin delivered ([1]; 20% coating concentration, listed as Ovalbumin): 9.9 ± 0.6 μg/cm^2
Approximate dose delivered ([1]; Delivery condition I: 1% coating, wearing time 5 seconds, surface area 1 cm^2): ~1 µg
Approximate dose delivered ([1]; Delivery condition II: 5% coating, wearing time 5 seconds, surface area 1 cm^2): ~5 µg
Approximate dose delivered ([1]; Delivery condition III: 20% coating, wearing time 5 seconds, surface area 2 cm^2): ~20 µg
Approximate dose delivered ([1]; Delivery condition IV: 20% coating, wearing time 3600 seconds, surface area 2 cm^2): ~80 µg
OVA delivered from arrays dry-coated with OVA and GMDP ([1]; array coated from OVA (1%) and GMDP (10%)): approximately 1 μg
Seroconversion after primary immunization ([2]; 20 or 80 μg OVA by microprojection array, 2 weeks after primary immunization): seroconverted by 2 weeks after the primary immunization
Seroconversion after booster immunization ([2]; OVA by microprojection array, all doses tested (1, 5, 20, 80 μg)): All animals had seroconverted
OVA delivered into hairless guinea pig skin ([4]; tip-coated 2 cm^2 arrays, 5 second or 1 hour wearing): up to 4.5 μg
Delivery efficiency ([4]; 5 second wearing time): higher than 55%
Delivery efficiency ([4]; 1 hour wearing time): > 85%

— patent US20090143724A1, “Microprojection Array Immunization Patch and Method” (Alza Corporation, priority 2001, published 2009)
